Assay results from article PMC7062661, “Expression and purification of the 5′-nucleotidase YitU from Bacillus species: its enzymatic properties and possible applications in biotechnology” (Applied Microbiology and Biotechnology, 2020).

How the values were obtained:
Test in all cases: purified protein
purified protein [1] = substrate: Cc1cc2nc3c(=O)[nH]c(=O)nc-3n(C[C@H](O)[C@H](O)[C@H](O)COP(=O)(O)O)c2cc1C; conditions: 50 mM imidazole pH 7.0, 5 mM MgCl2, 30 °C
purified protein [2] = substrate: NC(=O)c1ncn([C@@H]2O[C@H](COP(=O)(O)O)[C@@H](O)[C@H]2O)c1N; conditions: 50 mM imidazole pH 7.0, 5 mM MgCl2, 30 °C, Hill plot fit (sigmoidal kinetics)
purified protein [3] = substrate: Nc1ccn([C@@H]2O[C@H](COP(=O)(O)O)[C@@H](O)[C@H]2O)c(=O)n1; conditions: 50 mM imidazole pH 7.0, 5 mM MgCl2, 30 °C
purified protein [4] = substrate: Nc1nc2c(ncn2[C@@H]2O[C@H](COP(=O)(O)O)[C@@H](O)[C@H]2O)c(=O)[nH]1; conditions: 50 mM imidazole pH 7.0, 5 mM MgCl2, 30 °C
purified protein [5] = substrate: Nc1nc2c(ncn2[C@H]2C[C@H](O)[C@@H](COP(=O)(O)O)O2)c(=O)[nH]1; conditions: 50 mM imidazole pH 7.0, 5 mM MgCl2, 30 °C
purified protein [6] = substrate: Nc1ncnc2c1ncn2[C@@H]1O[C@H](COP(=O)(O)O)[C@@H](O)[C@H]1O; conditions: 50 mM imidazole pH 7.0, 5 mM MgCl2, 30 °C
purified protein [7] = substrate: Nc1ncnc2c1ncn2[C@H]1C[C@H](O)[C@@H](COP(=O)(O)O)O1; conditions: 50 mM imidazole pH 7.0, 5 mM MgCl2, 30 °C
purified protein [8] = substrate: O=c1[nH]c(=O)c2ncn([C@@H]3O[C@H](COP(=O)(O)O)[C@@H](O)[C@H]3O)c2[nH]1; conditions: 50 mM imidazole pH 7.0, 5 mM MgCl2, 30 °C

B1: Ht-YitUBs (Bacillus subtilis subsp. subtilis str. 168) (protein)
chain: METKPYLIALDLDGTLLKDDKTISENTLHTIQRLKDDGHYVCISTGRPYRSSSMYYQQMELTTPIVNFNGAFVHHPQDDSWGRYHTSLPLDVVKQLVDISESYNVHNVLAEVIDDVYFHYHDEHLIDAFNMNTTNVTVGDLRENLGEDVTSVLIHAKEEDVPAIRSYLSDVHAEVIDHRRWAAPWHVIEIIKSGMNKAVGLQKISDYYGVPRERIIAFGDEDNDLEMLEFAGCGVAMGNGIDAVKQIANRTTATNEEDGVARFLKEYFSL
Q: B1 was tested. Which Km (purified protein [1]) did it give?
A: Its Km is 0.096 ± 0.015 mM.

Q: And the Vmax (purified protein [1])?
A: The Vmax was 43.2 µmol/min/mg.

Q: What about the kcat (purified protein [1]) of the same protein?
A: The kcat was 23 s⁻¹.

Q: And the kcat/Km (purified protein [1])?
A: The kcat/Km was 239000 M⁻¹ s⁻¹.

Q: What about the K0.5 (purified protein [2]) of the same protein?
A: The K0.5 was 10.19 ± 1.50 mM.

Q: What about the Vmax (purified protein [2]) of the same protein?
A: Its Vmax is 21.2 µmol/min/mg.

Q: And the kcat (purified protein [2])?
A: Its kcat is 11.3 s⁻¹.

Q: What about the kcat/Km (purified protein [2]) of the same protein?
A: The kcat/Km was 1110 M⁻¹ s⁻¹.

Q: What about the Km (purified protein [3]) of the same protein?
A: Its Km is 17.45 ± 1.82 mM.

Q: What about the Vmax (purified protein [3]) of the same protein?
A: Its Vmax is 73.7 µmol/min/mg.

Q: And the kcat (purified protein [3])?
A: Its kcat is 39.2 s⁻¹.

Q: What about the kcat/Km (purified protein [3]) of the same protein?
A: The kcat/Km was 2250 M⁻¹ s⁻¹.

Q: And the Km (purified protein [4])?
A: The Km was 7.00 ± 0.29 mM.

Q: What about the Vmax (purified protein [4]) of the same protein?
A: The Vmax was 40 µmol/min/mg.

Q: What about the kcat (purified protein [4]) of the same protein?
A: The kcat was 21.3 s⁻¹.

Q: What about the kcat/Km (purified protein [4]) of the same protein?
A: The kcat/Km was 3040 M⁻¹ s⁻¹.

Q: What about the Km (purified protein [5]) of the same protein?
A: Its Km is 5.61 ± 0.79 mM.

Q: What about the Vmax (purified protein [5]) of the same protein?
A: Its Vmax is 25.9 µmol/min/mg.

Q: What about the kcat (purified protein [5]) of the same protein?
A: The kcat was 13.8 s⁻¹.

Q: What about the kcat/Km (purified protein [5]) of the same protein?
A: Its kcat/Km is 2460 M⁻¹ s⁻¹.

Q: And the Km (purified protein [6])?
A: Its Km is 14.32 ± 1.01 mM.

Q: What about the Vmax (purified protein [6]) of the same protein?
A: The Vmax was 52.9 µmol/min/mg.

Q: And the kcat (purified protein [6])?
A: Its kcat is 28.2 s⁻¹.

Q: What about the kcat/Km (purified protein [6]) of the same protein?
A: Its kcat/Km is 1970 M⁻¹ s⁻¹.

Q: What about the Km (purified protein [7]) of the same protein?
A: The Km was 8.24 ± 0.42 mM.

Q: And the Vmax (purified protein [7])?
A: Its Vmax is 49.4 µmol/min/mg.

Q: And the kcat (purified protein [7])?
A: Its kcat is 26.2 s⁻¹.

Q: What about the kcat/Km (purified protein [7]) of the same protein?
A: The kcat/Km was 3190 M⁻¹ s⁻¹.

Q: What about the Km (purified protein [8]) of the same protein?
A: Its Km is 21.74 ± 2.93 mM.

Q: And the Vmax (purified protein [8])?
A: The Vmax was 70.5 µmol/min/mg.

Q: And the kcat (purified protein [8])?
A: Its kcat is 37.5 s⁻¹.

Q: And the kcat/Km (purified protein [8])?
A: Its kcat/Km is 1720 M⁻¹ s⁻¹.
